# According to PMC5009318, “Structural insights into the IgE mediated responses induced by the allergens Hev b 8 and Zea m 12 in their dimeric forms” (Scientific Reports, 2016):
# Values joined by “and” are separate entries in the source; they are usually repeats but may differ in a detail not shown here. Identical values can stand only once.
# Target: the molecule itself
# Assay: SEC; HiLoad 16/60 Superdex 75, 50 mM Tris-HCl pH 7.5; samples incubated 1 week at 4 °C and applied at 10 mg/mL; calibrated with myoglobin, alpha-chymotrypsin and BSA
protein,measurement,value
"recombinant profilin allergen rHev b 8 (isoform Hev b 8.0102) from Hevea brasiliensis (natural protein, Cloned in pET28c; The dimer is held by a disulfide bridge between Cys13 of both chains; also called monomeric rHev b 8; dimeric rHev b 8; source: E. coli Rosetta (DE3), purified (Ni-NTA, enterokinase cleavage, mono Q anion exchange; oligomers separated by SEC)) MSWQAYVDDHLMCEIEGNHLSAAAIIGQDGSVWAQSANFPQFKSEEITGIMSDFHEPGTLAPTGLYIGGTKYMVIQGEPGAVIRGKKGPGGVTVKKTNQALIIGIYDEPMTPGQCNMIVERLGDYLIDQGY",stoichiometry N,2 and 3 and 4
